Laboratory results as given in PMC524172, “Yellaboina Sailu 1 sailu@cdfd.org.in”.

T1: IdeR (iron-dependent regulator) (Mycobacterium tuberculosis, UniProt P9WMH1 1-230)
T1 sequence: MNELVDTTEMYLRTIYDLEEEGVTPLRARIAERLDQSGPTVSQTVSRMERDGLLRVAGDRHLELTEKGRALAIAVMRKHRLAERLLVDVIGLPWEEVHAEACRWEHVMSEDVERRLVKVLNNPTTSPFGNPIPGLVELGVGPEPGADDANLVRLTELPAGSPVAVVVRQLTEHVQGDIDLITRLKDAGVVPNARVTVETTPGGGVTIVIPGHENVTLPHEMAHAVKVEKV

B1: negative control motif (dsDNA)
DNA 1: TTTTCATGACGTCTTCTAA
DNA 2: TTAGAAGACGTCATGAAAA
B2: DIP2304 motif (FpG) (dsDNA)
DNA 1: TTGGGGTGGCCTATCCTTA
DNA 2: TAAGGATAGGCCACCCCAA
B3: DIP0586 motif (iucA) (dsDNA)
DNA 1: TTAGGGTAGCTTCGCCTAA
DNA 2: TTAGGCGAAGCTACCCTAA
B4: DIP0699 motif (secA) (dsDNA)
DNA 1: TTGTGTTAGCCTAGGCTAA
DNA 2: TTAGCCTAGGCTAACACAA
B5: DIP2272 motif (sortase) (dsDNA)
DNA 1: TGTGGGCACACCAACCTAA
DNA 2: TTAGGTTGGTGTGCCCACA
B6: DIP2161 motif (sidA) (dsDNA)
DNA 1: TTAGGGTAGGCTAATCCAA
DNA 2: TTGGATTAGCCTACCCTAA

What follows are binders tested against T1, IdeR (iron-dependent regulator) (assay: EMSA; 200 uM Mn2+; 30 pmol IdeR). Settings: protein: recombinant; tags: 6xHis (pRSET vector); chain copies: 4; label: 32P end label; blunt.

Row | Binder | binding result
1 | B1 | no binding
2 | B2 | binds
3 | B3 | binds
4 | B4 | binds
5 | B5 | binds
6 | B6 | binds
